T1: human CD30 (commercial, conjugated to digoxigenin) (human, UniProt P28908 19-379, limits assumed, conjugated to digoxigenin (DIG))
T1 sequence (looked up): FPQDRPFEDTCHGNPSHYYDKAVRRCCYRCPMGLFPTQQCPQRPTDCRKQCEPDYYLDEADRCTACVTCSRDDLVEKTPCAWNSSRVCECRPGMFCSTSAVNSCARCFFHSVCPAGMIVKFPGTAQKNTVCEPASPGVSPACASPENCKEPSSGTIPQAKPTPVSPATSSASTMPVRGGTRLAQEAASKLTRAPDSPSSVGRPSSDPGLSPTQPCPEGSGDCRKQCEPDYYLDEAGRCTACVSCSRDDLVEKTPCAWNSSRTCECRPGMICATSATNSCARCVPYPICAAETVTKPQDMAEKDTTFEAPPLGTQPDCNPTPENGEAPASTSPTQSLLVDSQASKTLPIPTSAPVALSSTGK


These binders were tested against T1, human CD30 (commercial, conjugated to …) (assay: AlphaScreen competition).

Binder | Fold IC50 vs H3/L3 [fold]
AC10 H3/L3.30 (antibody, IgG1, name in Kabat numbering, V domains shown) VH: QIQLVQSGPEVKKPGASVKVSCKASGYTFTDYYITWVRQAPGQGLEWMGWIYPGSGNTKYNEKFQGRFVFSVDTSASTAYLQISSLKAEDTAVYFCANYGNYWFAYWGQGTLVTVSS VL: DIVLTQSPDSLAVSLGERATINCKASQSVDFDGDSYMNWYQQKPGQPPKLLIYAASNLESGIPARFSGSGSGTDFTLTINSLEAEDAATYYCQQSNEDPWTFGGGTKVEIK | 0.39
AC10 H3/L3.56 (antibody, IgG1, name in Kabat numbering, V domains shown) VH: QIQLVQSGPEVKKPGASVKVSCKASGYTFTDYYITWVRQAPGQGLEWMGWIYPGSGNTKYNEKFQGRFVFSVDTSASTAYLQISSLKAEDTAVYFCANYGNYWFAYWGQGTLVTVSS VL: DIVLTQSPDSLAVSLGERATINCKASQSVDFDGDSYMNWYQQKPGQPPKVLIYAASNLESGIPARFSGSGSGTDFTLTINSLEAEDAATYYCQQSNNDPWTFGGGTKVEIK | 0.64
AC10 H3/L3.42 (antibody, IgG1, name in Kabat numbering, V domains shown) VH: QIQLVQSGPEVKKPGASVKVSCKASGYTFTDYYITWVRQAPGQGLEWMGWIYPGSGNTKYNEKFQGRFVFSVDTSASTAYLQISSLKAEDTAVYFCANYGNYWFAYWGQGTLVTVSS VL: DIVLTQSPDSLAVSLGERATINCKASQSVDFDGDSYMNWYQQKPGQPPKVLIYAASNLESGVPARFSGSGSGTDFTLTINSLEAEDAATYYCQQSNEDPWTFGGGTKVEIK | 1.55
AC10 H3/L3.51 (antibody, IgG1, name in Kabat numbering, V domains shown) VH: QIQLVQSGPEVKKPGASVKVSCKASGYTFTDYYITWVRQAPGQGLEWMGWIYPGSGNTKYNEKFQGRFVFSVDTSASTAYLQISSLKAEDTAVYFCANYGNYWFAYWGQGTLVTVSS VL: DIVLTQSPDSLAVSLGERATINCKASQSVDFDGDSYMNWYQQKPGQPPKVLIYAASNLESGIPARFSGSGSGTDFTLTINSLEAEDAATYYCQQYNEDPWTFGGGTKVEIK | 0.02
AC10 H3/L3.54 (antibody, IgG1, name in Kabat numbering, V domains shown) VH: QIQLVQSGPEVKKPGASVKVSCKASGYTFTDYYITWVRQAPGQGLEWMGWIYPGSGNTKYNEKFQGRFVFSVDTSASTAYLQISSLKAEDTAVYFCANYGNYWFAYWGQGTLVTVSS VL: DIVLTQSPDSLAVSLGERATINCKASQSVDFDGDSYMNWYQQKPGQPPKVLIYAASNLESGIPARFSGSGSGTDFTLTINSLEAEDAATYYCQQSYEDPWTFGGGTKVEIK | 0.96
AC10 H3/L3.32 (antibody, IgG1, name in Kabat numbering, V domains shown) VH: QIQLVQSGPEVKKPGASVKVSCKASGYTFTDYYITWVRQAPGQGLEWMGWIYPGSGNTKYNEKFQGRFVFSVDTSASTAYLQISSLKAEDTAVYFCANYGNYWFAYWGQGTLVTVSS VL: DIVLTQSPDSLAVSLGERATINCKASQSVDFDGDSYMNWYQQKPGQPPKSLIYAASNLESGIPARFSGSGSGTDFTLTINSLEAEDAATYYCQQSNEDPWTFGGGTKVEIK | 0.32
AC10 H3/L3.50 (antibody, IgG1, name in Kabat numbering, V domains shown) VH: QIQLVQSGPEVKKPGASVKVSCKASGYTFTDYYITWVRQAPGQGLEWMGWIYPGSGNTKYNEKFQGRFVFSVDTSASTAYLQISSLKAEDTAVYFCANYGNYWFAYWGQGTLVTVSS VL: DIVLTQSPDSLAVSLGERATINCKASQSVDFDGDSYMNWYQQKPGQPPKVLIYAASNLESGIPARFSGSGSGTDFTLTINSLEAEDAATYYCQQLNEDPWTFGGGTKVEIK | 0.02
AC10 H3/L3.44 (antibody, IgG1, name in Kabat numbering, V domains shown) VH: QIQLVQSGPEVKKPGASVKVSCKASGYTFTDYYITWVRQAPGQGLEWMGWIYPGSGNTKYNEKFQGRFVFSVDTSASTAYLQISSLKAEDTAVYFCANYGNYWFAYWGQGTLVTVSS VL: DIVLTQSPDSLAVSLGERATINCKASQSVDFDGDSYMNWYQQKPGQPPKVLIYAASNLESGIPSRFSGSGSGTDFTLTINSLEAEDAATYYCQQSNEDPWTFGGGTKVEIK | 1.08
AC10 H3/L3.38 (antibody, IgG1, name in Kabat numbering, V domains shown) VH: QIQLVQSGPEVKKPGASVKVSCKASGYTFTDYYITWVRQAPGQGLEWMGWIYPGSGNTKYNEKFQGRFVFSVDTSASTAYLQISSLKAEDTAVYFCANYGNYWFAYWGQGTLVTVSS VL: DIVLTQSPDSLAVSLGERATINCKASQSVDFDGDSYMNWYQQKPGQPPKVLIYAASNRESGIPARFSGSGSGTDFTLTINSLEAEDAATYYCQQSNEDPWTFGGGTKVEIK | 1.46
AC10 H3/L3.48 (antibody, IgG1, name in Kabat numbering, V domains shown) VH: QIQLVQSGPEVKKPGASVKVSCKASGYTFTDYYITWVRQAPGQGLEWMGWIYPGSGNTKYNEKFQGRFVFSVDTSASTAYLQISSLKAEDTAVYFCANYGNYWFAYWGQGTLVTVSS VL: DIVLTQSPDSLAVSLGERATINCKASQSVDFDGDSYMNWYQQKPGQPPKVLIYAASNLESGIPARFSGSGSGTDFTLTINSLEAEDAATYYCQQGNEDPWTFGGGTKVEIK | 0.29
AC10 H3/L3.55 (antibody, IgG1, name in Kabat numbering, V domains shown) VH: QIQLVQSGPEVKKPGASVKVSCKASGYTFTDYYITWVRQAPGQGLEWMGWIYPGSGNTKYNEKFQGRFVFSVDTSASTAYLQISSLKAEDTAVYFCANYGNYWFAYWGQGTLVTVSS VL: DIVLTQSPDSLAVSLGERATINCKASQSVDFDGDSYMNWYQQKPGQPPKVLIYAASNLESGIPARFSGSGSGTDFTLTINSLEAEDAATYYCQQSNKDPWTFGGGTKVEIK | 0.27
AC10 H3/L3.37 (antibody, IgG1, name in Kabat numbering, V domains shown) VH: QIQLVQSGPEVKKPGASVKVSCKASGYTFTDYYITWVRQAPGQGLEWMGWIYPGSGNTKYNEKFQGRFVFSVDTSASTAYLQISSLKAEDTAVYFCANYGNYWFAYWGQGTLVTVSS VL: DIVLTQSPDSLAVSLGERATINCKASQSVDFDGDSYMNWYQQKPGQPPKVLIYAASTLESGIPARFSGSGSGTDFTLTINSLEAEDAATYYCQQSNEDPWTFGGGTKVEIK | 1.26
AC10 H3/L3.39 (antibody, IgG1, name in Kabat numbering, V domains shown) VH: QIQLVQSGPEVKKPGASVKVSCKASGYTFTDYYITWVRQAPGQGLEWMGWIYPGSGNTKYNEKFQGRFVFSVDTSASTAYLQISSLKAEDTAVYFCANYGNYWFAYWGQGTLVTVSS VL: DIVLTQSPDSLAVSLGERATINCKASQSVDFDGDSYMNWYQQKPGQPPKVLIYAASNLASGIPARFSGSGSGTDFTLTINSLEAEDAATYYCQQSNEDPWTFGGGTKVEIK | 0.85
AC10 H3/L3.34 (antibody, IgG1, name in Kabat numbering, V domains shown) VH: QIQLVQSGPEVKKPGASVKVSCKASGYTFTDYYITWVRQAPGQGLEWMGWIYPGSGNTKYNEKFQGRFVFSVDTSASTAYLQISSLKAEDTAVYFCANYGNYWFAYWGQGTLVTVSS VL: DIVLTQSPDSLAVSLGERATINCKASQSVDFDGDSYMNWYQQKPGQPPKVLIYSASNLESGIPARFSGSGSGTDFTLTINSLEAEDAATYYCQQSNEDPWTFGGGTKVEIK | 0.47
AC10 H3/L3.53 (antibody, IgG1, name in Kabat numbering, V domains shown) VH: QIQLVQSGPEVKKPGASVKVSCKASGYTFTDYYITWVRQAPGQGLEWMGWIYPGSGNTKYNEKFQGRFVFSVDTSASTAYLQISSLKAEDTAVYFCANYGNYWFAYWGQGTLVTVSS VL: DIVLTQSPDSLAVSLGERATINCKASQSVDFDGDSYMNWYQQKPGQPPKVLIYAASNLESGIPARFSGSGSGTDFTLTINSLEAEDAATYYCQQSSEDPWTFGGGTKVEIK | 0.48
AC10 H3/L3.43 (antibody, IgG1, name in Kabat numbering, V domains shown) VH: QIQLVQSGPEVKKPGASVKVSCKASGYTFTDYYITWVRQAPGQGLEWMGWIYPGSGNTKYNEKFQGRFVFSVDTSASTAYLQISSLKAEDTAVYFCANYGNYWFAYWGQGTLVTVSS VL: DIVLTQSPDSLAVSLGERATINCKASQSVDFDGDSYMNWYQQKPGQPPKVLIYAASNLESGIPDRFSGSGSGTDFTLTINSLEAEDAATYYCQQSNEDPWTFGGGTKVEIK | 1.16
AC10 H3/L3.49 (antibody, IgG1, name in Kabat numbering, V domains shown) VH: QIQLVQSGPEVKKPGASVKVSCKASGYTFTDYYITWVRQAPGQGLEWMGWIYPGSGNTKYNEKFQGRFVFSVDTSASTAYLQISSLKAEDTAVYFCANYGNYWFAYWGQGTLVTVSS VL: DIVLTQSPDSLAVSLGERATINCKASQSVDFDGDSYMNWYQQKPGQPPKVLIYAASNLESGIPARFSGSGSGTDFTLTINSLEAEDAATYYCQQHNEDPWTFGGGTKVEIK | 0.01
AC10 H3/L3.58 (antibody, IgG1, name in Kabat numbering, V domains shown) VH: QIQLVQSGPEVKKPGASVKVSCKASGYTFTDYYITWVRQAPGQGLEWMGWIYPGSGNTKYNEKFQGRFVFSVDTSASTAYLQISSLKAEDTAVYFCANYGNYWFAYWGQGTLVTVSS VL: DIVLTQSPDSLAVSLGERATINCKASQSVDFDGDSYMNWYQQKPGQPPKVLIYAASNLESGIPARFSGSGSGTDFTLTINSLEAEDAATYYCQQSNSDPWTFGGGTKVEIK | 0.49
AC10 H3/L3.40 (antibody, IgG1, name in Kabat numbering, V domains shown) VH: QIQLVQSGPEVKKPGASVKVSCKASGYTFTDYYITWVRQAPGQGLEWMGWIYPGSGNTKYNEKFQGRFVFSVDTSASTAYLQISSLKAEDTAVYFCANYGNYWFAYWGQGTLVTVSS VL: DIVLTQSPDSLAVSLGERATINCKASQSVDFDGDSYMNWYQQKPGQPPKVLIYAASNLQSGIPARFSGSGSGTDFTLTINSLEAEDAATYYCQQSNEDPWTFGGGTKVEIK | 0.87
AC10 H3/L3.33 (antibody, IgG1, name in Kabat numbering, V domains shown) VH: QIQLVQSGPEVKKPGASVKVSCKASGYTFTDYYITWVRQAPGQGLEWMGWIYPGSGNTKYNEKFQGRFVFSVDTSASTAYLQISSLKAEDTAVYFCANYGNYWFAYWGQGTLVTVSS VL: DIVLTQSPDSLAVSLGERATINCKASQSVDFDGDSYMNWYQQKPGQPPKVLIYDASNLESGIPARFSGSGSGTDFTLTINSLEAEDAATYYCQQSNEDPWTFGGGTKVEIK | 0.26
AC10 H3/L3.41 (antibody, IgG1, name in Kabat numbering, V domains shown) VH: QIQLVQSGPEVKKPGASVKVSCKASGYTFTDYYITWVRQAPGQGLEWMGWIYPGSGNTKYNEKFQGRFVFSVDTSASTAYLQISSLKAEDTAVYFCANYGNYWFAYWGQGTLVTVSS VL: DIVLTQSPDSLAVSLGERATINCKASQSVDFDGDSYMNWYQQKPGQPPKVLIYAASNLETGIPARFSGSGSGTDFTLTINSLEAEDAATYYCQQSNEDPWTFGGGTKVEIK | 1.8
